This is an account of results in paper doi:10.1101/2022.08.19.504503.

The target of this test is Cdh23 with entire EC domains (Cdh23 EC 1-27) (UniProt Q99PF4). The test is described as follows: cross-linking.

Consider “Cdh23 with entire EC domains (Cdh23 EC 1-27) (from UniProt Q99PF4 24-3354) (domain or fragment)”, for which the stoichiometry N (usually the number of molecules, sites or subunits per partner or assembly) is 2.
